Results from paper PMC7018516, “Structure of the AAA protein Msp1 reveals mechanism of mislocalized membrane protein extraction” (eLife, 2020).
One block for each molecule: values may come before it.

Tests used:
Δ30-Msp1 [1] = biological target: T1, Δ30-Msp1 (Thermochaetoides thermophila, UniProt G0S654); assay: cryo-EM structure of complex; settings: 5 mM ADP•BeFx, 5 mM MgCl2, pH 7.5; ADP without BeFx in subunit M5; nucleotide-binding pocket; substrate peptide in pore
T1 construct: gene CTHT_0034230; cytosolic domain lacking the 30-residue N-terminal membrane anchor; GST tag removed by thrombin; expressed in E. coli BL21(DE3); homohexamer with trapped endogenous E. coli peptide in the pore
T1 sequence (G0S654 entry or part of it, stated change not applied): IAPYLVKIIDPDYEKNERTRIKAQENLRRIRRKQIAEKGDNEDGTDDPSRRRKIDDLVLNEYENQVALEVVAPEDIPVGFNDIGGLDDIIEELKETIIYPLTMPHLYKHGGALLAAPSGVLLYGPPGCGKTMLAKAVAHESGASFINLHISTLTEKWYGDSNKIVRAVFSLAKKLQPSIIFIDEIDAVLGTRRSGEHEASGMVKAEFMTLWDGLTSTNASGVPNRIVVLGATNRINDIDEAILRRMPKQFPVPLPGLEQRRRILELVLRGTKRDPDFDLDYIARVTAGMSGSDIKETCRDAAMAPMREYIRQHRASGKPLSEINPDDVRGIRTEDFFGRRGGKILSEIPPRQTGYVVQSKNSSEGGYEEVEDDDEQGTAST

Δ30-Msp1 [2] = biological target: T2, Δ30-Msp1 (Thermochaetoides thermophila, UniProt G0S654, E214Q); assay: cryo-EM structure of complex; settings: 2 mM ATP, 2 mM MgCl2, pH 7.5; subunits M1-M5; nucleotide-binding pocket; Walker B mutant, hydrolysis inactive
T2 construct: gene CTHT_0034230; cytosolic domain lacking the 30-residue N-terminal membrane anchor; GST tag removed by thrombin; expressed in E. coli BL21(DE3); homohexamer with trapped endogenous E. coli peptide in the pore
T2 sequence (G0S654 entry or part of it E214Q): as the sequence (G0S654 entry or part of it, stated change not applied) above, with E184Q counted along it

[3] = biological target: Δ30-Msp1 (cytosolic domain of Chaetomium thermophilum Msp1 lacking its 30 amino acid N-terminal membrane anchor) (Chaetomium thermophilum); assay: SEC; gel filtration of the purified protein in Msp1 lysis buffer (25 mM HEPES pH 7.5, 300 mM NaCl, 1 mM DTT, 2 mM MgCl2); self-association
[4] = biological target: Δ30-Msp1 (cytosolic domain of Chaetomium thermophilum Msp1 lacking its 30 amino acid N-terminal membrane anchor) (Chaetomium thermophilum); assay: cryo-EM structure; Δ30-Msp1 at 50–100 μM with 5 mM MgCl2 and 5 mM ADP•BeFx, 25 mM HEPES pH 7.5, 300 mM NaCl, 1 mM DTT, 2.5% glycerol; subunit with subunit; open and closed conformations
[5] = biological target: Δ30-Msp1^E214Q (Walker B mutant of the cytosolic domain of Chaetomium thermophilum Msp1) (Chaetomium thermophilum); assay: SEC; gel filtration of the purified protein in Msp1 lysis buffer (25 mM HEPES pH 7.5, 300 mM NaCl, 1 mM DTT, 2 mM MgCl2); self-association
[6] = biological target: Δ30-Msp1^E214Q (Walker B mutant of the cytosolic domain of Chaetomium thermophilum Msp1) (Chaetomium thermophilum); assay: cryo-EM structure; Δ30-Msp1^E214Q at 50–100 μM with 2 mM ATP and 2 mM MgCl2, 25 mM HEPES pH 7.5, 300 mM NaCl, 1 mM DTT, 2.5% glycerol; subunit with subunit; hexamer and larger oligomer classes
[7] = biological target: Δ30-Msp1^E214Q (Walker B mutant of the cytosolic domain of Chaetomium thermophilum Msp1) (Chaetomium thermophilum); assay: as above; remark: listed apart in the source

Molecule: Nc1ncnc2c1ncn2[C@@H]1O[C@H](COP(=O)(O)OP(=O)(O)O)[C@@H](O)[C@H]1O [ADP]
cryo-EM structure of complex (Δ30-Msp1 [1]): M1 -M4 were bound to ADP•BeFx (mimicking the ATP state), M5 was bound to ADP

Molecule: Nc1ncnc2c1ncn2[C@@H]1O[C@H](COP(=O)(O)OP(=O)(O)OP(=O)(O)O)[C@@H](O)[C@H]1O [ATP]
cryo-EM structure of complex (Δ30-Msp1 [2]): In Δ30-Msp1^E214Q, M1-M5 display clear density for ATP

stoichiometry N [3]: 6
stoichiometry N [4]: 6
Molecule: Δ30-Msp1 (cytosolic domain of Chaetomium thermophilum Msp1 lacking its 30 amino acid N-terminal membrane anchor) (enzyme)

stoichiometry N [5]: > 6
stoichiometry N [6]: 6
stoichiometry N [7]: 7
Molecule: Δ30-Msp1^E214Q (Walker B mutant of the cytosolic domain of Chaetomium thermophilum Msp1) (enzyme)
